Measured values: the supplement of paper PMC10201428
± gives the standard deviation of the averaged measurements.

B1: library; a variant is named by its letters at N, in order (parent)
chain: AATGTTGTTGATGCAACCATAAAGTGATATTTAATAATTATTTATAATCAGCAACTTAACCACAAAACAACCATATATTGATATNTCACAAAACAACCATAANTTGATATTTTTGTGAATCGAGTATTTCAGCAAAACTACTGCAGTAAGAA

Tests used:
[1] = variants of: B1; assay: relative integration efficiency (T-LR orientation) vs wild-type transposon end (log2 (normalized fold change)); transposon end mutated: left end; higher = more efficient transposition; conditions: with VchCAST RNA-guided transposition machinery (E. coli BL21(DE3) host, lacZ target)
Method in brief: (§1)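 Barcode abundances in input plasmids and in genomic integration junctions were obtained by PCR amplification and Illumina sequencing. These came from E. coli BL21(DE3) co-transformed with a T7-driven effector plasmid and a pUC57 donor carrying 1549 left-end or 1849 right-end transposon variants, then plated with 0.1 mM IPTG at 37°C for 18 h. Relative integration efficiency is the output/input fold change, normalised to reference barcodes and log-transformed.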

[2] = variants of: B1; assay: relative integration efficiency (T-RL orientation) vs wild-type transposon end (log2 (normalized fold change)); transposon end mutated: left end; higher = more efficient transposition; conditions: with VchCAST RNA-guided transposition machinery (E. coli BL21(DE3) host, lacZ target)
Method in brief: as §1

Row | Variant | relative integration efficiency (log2) [1] | relative integration efficiency (log2) [2]
1 | AATGTTGTTGATGCAACCATAAAGTGATATTTAATAATTATTTATAATCAGCAACTTAACCACAAAACAACCATACATTGATATCTCACAAAACAACCATAAGTTGATATTTTTGTGAATCGAGTATTTCAGCAAAACTACTGCAGTAAGAA [CG T76C] | -1.37 ± 0.51 | -1.06 ± 0.46
2 | AATGTTGTTGAGGCAACCATAAAGTGATATTTAATAATTATTTATAATCAGCAACTTAACCACAAAACAACCATATATTGATATCTCACAAAACAACCATAAGTTGATATTTTTGTGAATCGAGTATTTCAGCAAAACTACTGCAGTAAGAA [CG T12G] | -0.01 ± 0.2 | -0.917 ± 0.57
3 | AATGTTGTTGATGCAACCATAAAGTGATATTTAATAATTATTTAGCATCAGCAACTTAACCACAAAACAACCATATATTGATATCTCACAAAACAACCATAAGTTGATATTTTTGTGAATCGAGTATTTCAGCAAAACTACTGCAGTAAGAA [CG T45G A46C] | 0.396 ± 0.26 | -0.219 ± 0.2
4 | AATGTTGTTGATGCAACCATAAAGTGATATTTAATAATTATTTATAATCAGCAACTTAACCACAAAACAACCATATATTGATATCTCACAAAACAACCATAAGTTGATAGGTTTGTGAATCGAGTATTTCAGCAAAACTACTGCAGTAAGAA [CG T110G T111G] | -1.08 ± 0.37 | -1.16 ± 0.65
5 | AATGTTGTTGATGCAACCATAAAGTGATATTTAATAATTATTTATAATCAGCAACTTAACCACAAAACAACCATATATTGATATCTCACAAAACAACCATAAGTTGATATTATTGTGAATCGAGTATTTCAGCAAAACTACTGCAGTAAGAA [CG T112A] | -0.239 ± 0.61 | -0.304 ± 0.19
6 | AATGTTGTTGATGCAACCATAAAGTGATATTTAATAATTATTTATAATCAGCAACTTAACCACAAAACAACCATATATTGATATCTCACAAAACAACCATATCAAGATATTTTTGTGAATCGAGTATTTCAGCAAAACTACTGCAGTAAGAA [CC A102T T104A T105A] | -0.708 ± 0.07 | -0.322 ± 0.48
7 | AATGTTGTTGATGCACCCATAAATTGATAATTAATAATTATTTATAATCAGCAACTTAACCACAAAACAACCATAAGTTGATATTTTACAAAACAACCATATATTGATATCTCTGTGAATCGAGTATTTCAGCAAAACTACTGCAGTAAGAA [TA A16C G24T T30A T76A A77G C87T A102T T111C T113C] | -1.05 ± 1.4 | -0.994 ± 0.46
8 | AATGTTTTTGATGCAACCATAAAGTGATATTTAATAATTATTTATAATCAGCAACTTAACCACAAAACAACCATATATTGATATCTCACAAAACAACCATAAGTTGATATTTTTGTGAATCGAGTATTTCAGCAAAACTACTGCAGTAAGAA [CG G7T] | -4.09 ± 0.17 | -2.59 ± 0.72
9 | AATGTTGTTGATGCAACCATAAAGTGATATTTAATAATTATTTATTATCAGCAACTTAACCACAAAACAACCATATATTGATATCTCACAAAACAACCATAAGTTGATATTTTTGTGAATCGAGTATTTCAGCAAAACTACTGCAGTAAGAA [CG A46T] | -0.195 ± 0.93 | -0.0773 ± 0.14
10 | AATGTTGTTGATGCAACCATAAAGTGATCTTTAATAATTATTTATAATCAGCAACTTAACCACAAAACAACCATATATTGATCTCTCACAAAACAACCATAAGTTGATCTTTTTGTGAATCGAGTATTTCAGCAAAACTACTGCAGTAAGAA [CG A29C A83C A109C] | -1.94 ± 0.43 | -1.65 ± 0.57
11 | AATGTTGTTGATGCAACCATAAAGTGATATTTAATAATTATTTATAATCAGCAACTTAACCACAAAACAACCATATATTGATATCTCACAAAACAACACTAAGTTGATATTTTTGTGAATCGAGTATTTCAGCAAAACTACTGCAGTAAGAA [CG C98A A99C] | -1.94 ± 1 | -1.73 ± 0.54
12 | AATGTTGTTGATGCAACCATAAAGTGATATTTAATAATTATTTATAATCAGCAACTTAACCAGAAAACAACCATATATTGATATCTCACAAAACAACCATAAGTTGATATTTTTGTGAATCGAGTATTTCAGCAAAACTACTGCAGTAAGAA [CG C63G] | 0.324 ± 0.23 | 0.223 ± 0.039
13 | AATGTTGTTGATGCAACCATAAAGTGATATTTAATAATTATTTATAATCAGCAACTTAACCACAAAACAACCATATATTGATATCTCACAAAACAACCATAAGGGGATATTTTTGTGAATCGAGTATTTCAGCAAAACTACTGCAGTAAGAA [CG T104G T105G] | -1.76 ± 0.75 | -1.3 ± 0.71
14 | AATGTTGTTGGTGCAACCATAAAGTGATATTTAATAATTATTTATAATCAGCAACTTAACCACAAAACAACCATATATTGATATCTCACAAAACAACCATAAGTTGATATTTTTGTGAATCGAGTATTTCAGCAAAACTACTGCAGTAAGAA [CG A11G] | -0.67 ± 0.84 | 0.0387 ± 0.29
15 | AATGTTGTTGATGCAACCATAAAGTGATATTTAATATATATTTATAATCAGCAACTTAACCACAAAACAACCATATATTGATATCTCACAAAACAACCATAAGTTGATATTTTTGTGAATCGAGTATTTCAGCAAAACTACTGCAGTAAGAA [CG A37T T38A] | 0.156 ± 0.25 | 0.191 ± 0.1
16 | AATGTTGTTGATGCAACCATAAAGTGATATTTAATATAATTTTATAATCAGCAACTTAACCACAAAACAACCATATATTGATATCTCACAAAACAACCATAAGTTGATATTTTTGTGAATCGAGTATTTCAGCAAAACTACTGCAGTAAGAA [CG A37T T38A T39A A40T] | 0.186 ± 0.28 | 0.137 ± 0.049
17 | AATGTTGTTGATGCAACCATATATTGATATCTCATAATTATTTATAATCAGCAACTTAACCACAAAACAACCATAAAATGATAATTAACAAAACAACCATATATTGATATCTCTGTGAATCGAGTATTTCAGCAAAACTACTGCAGTAAGAA [TA A22T G24T T31C A33C T76A T78A T84A C87A A102T T111C T113C] | -0.838 ± 1.2 | -0.485 ± 0.43
18 | AATGTTGTTGATGCAACCATAAAGGGATATTTAATAATTATTTATAATCAGCAACTTAACCACAAAACAACCATATATTGATATCTCACAAAACAACCATAAGTTGATATTTTTGTGAATCGAGTATTTCAGCAAAACTACTGCAGTAAGAA [CG T25G] | -0.618 ± 1 | -0.455 ± 0.37
19 | AATGTTGTTGATGCAACCATAAAGCGATATTTAATAATTATTTATAATCAGCAACTTAACCACAAAACAACCATATATTGATATCTCACAAAACAACCATAAGTTGATATTTTTGTGAATCGAGTATTTCAGCAAAACTACTGCAGTAAGAA [CG T25C] | 0.0625 ± 0.14 | -0.137 ± 0.12
